As a reminder, the Kd is a measure of binding affinity in units of concentration. Higher therefore signals lower affinity.

The values below come from patent CN117836322A.

This assay concerns the target SARS-CoV-2 RBD结构域 (wild type) (SARS-CoV-2). The assay can be described thus: SPR (Biacore), antibody coupled to CM5 chip, viral protein as analyte, 25°C. The following applies: remark: other sources report otherwise. For orientation: SPR reads the build-up and loss of mass on a sensor chip optically.

Where a chain is given by its changes, count along the chain named.

B1: Cv2.3194 IgG1 (antibody)
heavy: EVQLVESGGGLIQPGGSLRLSCAASGITVTSNYMSWVRQAPGKGLEWVSVIYPGGSTFYADSVKGRFTISRDNSKNTLYLQMNSLRAEDTAVYYCARDLVVYGMDVWGQGTTVTVSSASTKGPSVFPLAPSSKSTSGGTAALGCLVKDYFPEPVTVSWNSGALTSGVHTFPAVLQSSGLYSLSSVVTVPSSSLGTQTYICNVNHKPSNTKVDKKVEPKSCDKTHTCPPCPAPELLGGPSVFLFPPKPKDTLMISRTPEVTCVVVDVSHEDPEVKFNWYVDGVEVHNAKTKPREEQYNSTYRVVSVLTVLHQDWLNGKEYKCKVSNKALPAPIEKTISKAKQPREPQVYTLPPSRDELTKNQVSLTCLVKGFYPSDIAVEWESNGQPENNYKTTPPVLDSDGSFFLYSKLTVDKSRWQQGNVFSCSVMHEALHNHYTQKSLSLSPGK
light: EIVLTQSPGTLSLSPGERATLSCRASQSVSSSYLAWYQQKPGQAPRLLIYGASSRATGIPGRFSGSGSGTDFTLTISRLEPEDFAIYYCQQGVTFGGGTKVEIKRTVAAPSVFIFPPSDEQLKSGTASVVCLLNNFYPREAKVQWKVDNALQSGNSQESVTEQDSKDSTYSLSSTLTLSKADYEKHKVYACEVTHQGLSSPVTKSFNRGEC
B1: the Kd is less than 1 µM.

B2: Cv2.5213 IgG1 (antibody)
heavy: B1 heavy with I27F, T30S, V50L, P53S, F58Y, V100N, V101Y, T111A
light: not shown
B2 registered a Kd of less than 1 µM.

B3: Cv2.3235 IgG1 (antibody)
heavy: B1 heavy with I27F, T30S, S31R, P53S, L99G, V100D, V101Y
light: DIQMTQSPSFLSASVGDRVTITCRASQGISSFLAWYQQKPGKAPKLLIYGASTLQSGVTSRFSGSGSGTEFTLTISSLQPEDFATYYCQRLDSYPPITFGQGTRLEIKRTVAAPSVFIFPPSDEQLKSGTASVVCLLNNFYPREAKVQWKVDNALQSGNSQESVTEQDSKDSTYSLSSTLTLSKADYEKHKVYACEVTHQGLSSPVTKSFNRGEC
B3 returned an equilibrium dissociation constant (Kd) of less than 1 µM.

B4: Cv2.1353 IgG1 (antibody)
heavy: EVQLVESGGGLVQPGGSLRLSCAASGVTVSSNYMNWVRQAPGKGLEWVSVIYSGGSTFYADSVKGRFIISRDNSKNTLYLQMNSLKTEDTAVYYCARDLGPMGFDIWGQGTMVTVSSASTKGPSVFPLAPSSKSTSGGTAALGCLVKDYFPEPVTVSWNSGALTSGVHTFPAVLQSSGLYSLSSVVTVPSSSLGTQTYICNVNHKPSNTKVDKKVEPKSCDKTHTCPPCPAPELLGGPSVFLFPPKPKDTLMISRTPEVTCVVVDVSHEDPEVKFNWYVDGVEVHNAKTKPREEQYNSTYRVVSVLTVLHQDWLNGKEYKCKVSNKALPAPIEKTISKAKQPREPQVYTLPPSRDELTKNQVSLTCLVKGFYPSDIAVEWESNGQPENNYKTTPPVLDSDGSFFLYSKLTVDKSRWQQGNVFSCSVMHEALHNHYTQKSLSLSPGK
light: DIQMTQSPSFLSASVGDRVTITCRASQGISSYLAWYQQKPGKAPKLLIYAASTLQSGVPSRFSGSGSGTEFTLTISSLQPEDFATYYCQQLNSDPPVTFGPGTKVDIKRTVAAPSVFIFPPSDEQLKSGTASVVCLLNNFYPREAKVQWKVDNALQSGNSQESVTEQDSKDSTYSLSSTLTLSKADYEKHKVYACEVTHQGLSSPVTKSFNRGEC
In turn, B4 registered an equilibrium dissociation constant (Kd) of less than 1 µM.
